Sequences and labels used below:
T1: FLP recombinase (Saccharomyces cerevisiae, UniProt P03870 P03870:1-423)
T1 sequence: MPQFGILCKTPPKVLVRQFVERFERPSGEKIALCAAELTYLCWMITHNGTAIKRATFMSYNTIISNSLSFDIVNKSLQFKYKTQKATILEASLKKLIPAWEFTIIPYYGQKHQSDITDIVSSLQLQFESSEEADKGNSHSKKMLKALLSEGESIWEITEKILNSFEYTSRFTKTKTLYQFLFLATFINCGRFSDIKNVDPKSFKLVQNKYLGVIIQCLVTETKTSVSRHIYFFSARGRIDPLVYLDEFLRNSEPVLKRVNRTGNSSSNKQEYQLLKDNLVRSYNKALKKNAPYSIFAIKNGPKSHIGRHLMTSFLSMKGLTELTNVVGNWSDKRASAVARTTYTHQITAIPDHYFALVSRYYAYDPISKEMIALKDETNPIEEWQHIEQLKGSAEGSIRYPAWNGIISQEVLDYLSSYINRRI

B1: f72 mutant FRT (dsDNA)
DNA 1: TCGAGGACGTCGAAGTTCCTATACTTTCTACAGAATAGGAACTTCTCCGGAA
DNA 2: CTAGTTCCGGAGAAGTTCCTATTCTGTAGAAAGTATAGGAACTTCGACGTCC
B2: f2151 mutant FRT (dsDNA)
DNA 1: TCGAGGACGTCGAAGTTCCTATACTCTCCAGAGAATAGGAACTTCTCCGGAA
DNA 2: CTAGTTCCGGAGAAGTTCCTATTCTCTGGAGAGTATAGGAACTTCGACGTCC
B3: f2262 mutant FRT (dsDNA)
DNA 1: TCGAGGACGTCGAAGTTCCTATACTATCTTGAGAATAGGAACTTCTCCGGAA
DNA 2: CTAGTTCCGGAGAAGTTCCTATTCTCAAGATAGTATAGGAACTTCGACGTCC
B4: f61 mutant FRT (dsDNA)
DNA 1: TCGAGGACGTCGAAGTTCCTATACTTTCTGGAGAATAGGAACTTCTCCGGAA
DNA 2: CTAGTTCCGGAGAAGTTCCTATTCTCCAGAAAGTATAGGAACTTCGACGTCC
B5: F3 mutant FRT (dsDNA)
DNA 1: TCGAGGACGTCGAAGTTCCTATACTATTTGAAGAATAGGAACTTCTCCGGAA
DNA 2: CTAGTTCCGGAGAAGTTCCTATTCTTCAAATAGTATAGGAACTTCGACGTCC
B6: f2161 mutant FRT (dsDNA)
DNA 1: TCGAGGACGTCGAAGTTCCTATACTCTCTGGAGAATAGGAACTTCTCCGGAA
DNA 2: CTAGTTCCGGAGAAGTTCCTATTCTCCAGAGAGTATAGGAACTTCGACGTCC

For this data set, the target named is T1, FLP recombinase. The data set can be described thus: recombination of two identical sites; same buffer. As to conditions: tags: untagged; expressed from recombinant adenovirus AxCAFLP (2 micron DNA FLP gene) in 293 cells; chain copies: 4. Here is the method: Whether or not FLP-dependent recombination reaction caused between the two mutant FRT sequences was studied by the assay described below. The DraI-digested plasmid DNA (1.5 μg) prepared in Example 2 and the cell extract containing FLP (25 μl) prepared in Example 1 were added to buffer containing 50 mM Tris-HCl (pH 7.5)/10 mM MgCl₂/5 mM DTT in its final concentration (the volume of reaction solution: 50 μl), and the reaction mixture was incubated at 30° C. for 30 minutes. After the termination of the reaction, 200 μl of sterilized water and 50 […] of 20 mM EDTA solution (pH 8.0) were added to the reaction mixture. The reaction mixture was extracted with phenol/chloroform and with chloroform. The resulting product was precipitated with ethanol, to obtain DNA. The resulting DNA was then solubilized in 20 μl of TE buffer (pH 8.0) containing RNaseA (20 μg/ml). Next, an entire volume of the resultant was digested with restriction enzyme NcoI, and subjected to electrophoresis on agarose gel. Thereafter, DNA bands detected by ethidium bromide (EtBr) staining were analyzed.
In order to numerically express the reaction efficiency, the ratio of […] was calculated as the recombination ratio (%) between the two FRT sequences.
For B1, the activity worked out at 10.9%.

Consider B2, for which the activity was 2.9%.

On to B3, for which the activity worked out at 3.8%. On to B4, for which the activity turned out to be 2.6%. Then B5, with 3.1%. With B6, the activity was 4.5%.

The record behind these values is patent US20060094111, “DNA containing variant FRT sequences” (published 2006).
